# Patent US20250186614A1, “COMPACT DRUG RESPONSIVE DOMAINS FOR REGULATION OF FUNCTION/ABUNDANCE AND DELIVERY OF POLYPEPTIDE PAYLOADS” (OBSIDIAN THERAPEUTICS, INC., priority 2022, published 2025)
# Substitutions are numbered along the chain they refer to. In names and notes the source's numbering stands.
# B1: FKBP-059: FKBP13 DRD Q72R, Q84E, A117H, L93A; SEQ ID NO: 15 (protein)
# chain: HCPIKSRKGDVLHMHYTGKLEDGTEFDSSLPRNQPFVFSLGTGEVIKGWDQGALGMCEGEKRKLVIPSELGYGERGHPPKIPGGATLVFEVELLKIER
# modifications: Description of sequence: FKBP13-AcGFP-mCherry Fusion; Construct Name: FKBP-059; FKBP13 DRD in Construct : FKBP13 (mutated to match FKBP12 active site - Q72R Q84E A117H) (DRD - L93A)
# B2: FKBP-060: FKBP13 DRD Q72R, Q84E, A117H, L104A; SEQ ID NO: 16 (protein)
# chain: B1 chain with A53L, L64A
# modifications: Description of sequence: FKBP13-AcGFP-mCherry Fusion; Construct Name: FKBP-060; FKBP13 DRD in Construct : FKBP13 (mutated to match FKBP12 active site - Q72R Q84E A117H) (DRD - L104A)
# B3: FKBP-061: FKBP13 DRD Q72R, Q84E, A117H, L133A; SEQ ID NO: 17 (protein)
# chain: B1 chain with A53L, L93A
# modifications: Description of sequence: FKBP13-AcGFP-mCherry Fusion; Construct Name: FKBP-061; FKBP13 DRD in Construct : FKBP13 (mutated to match FKBP12 active site - Q72R Q84E A117H) (DRD - L133A)
# B4: FKBP-064: FKBP13 DRD Q72R, Q84E, A117H, R102L; SEQ ID NO: 20 (protein)
# chain: B1 chain with A53L, R62L
# modifications: Description of sequence: FKBP13-AcGFP-mCherry Fusion; Construct Name: FKBP-064; FKBP13 DRD in Construct : FKBP13 (mutated to match FKBP12 active site - Q72R Q84E A117H) (DRD - R102L)
# B5: FKBP-085: FKBP13 trunc1WT DRD Q72R, Q84E, A117H; SEQ ID NO: 35 (protein)
# chain: CPIKSRKGDVLHMHYTGKLEDGTEFDSSLPRNQPFVFSLGTGEVIKGWDQGLLGMCEGEKRKLVIPSELGYGERGHPPKIPGGATLVFEVELLKIER
# modifications: truncated (trunc1); Description of sequence: FKBP13-AcGFP-mCherry Fusion; Construct Name: FKBP-085; FKBP13 DRD in Construct : FKBP13 trunc1WT (mutated to match FKBP12 active site Q72R Q84E A117H) (DRD - WT)
# B6: FKBP-084: FKBP13 trunc2 DRD Q72R, Q84E, A117H, M54A; SEQ ID NO: 34 (protein)
# chain: PIKSRKGDVLHAHYTGKLEDGTEFDSSLPRNQPFVFSLGTGEVIKGWDQGLLGMCEGEKRKLVIPSELGYGERGHPPKIPGGATLVFEVELLKIER
# modifications: truncated (trunc2); Description of sequence: FKBP13-AcGFP-mCherry Fusion; Construct Name: FKBP-084; FKBP13 DRD in Construct : FKBP13 trunc2 (mutated to match FKBP12 active site Q72R Q84E A117H) (DRD - M54A)
# B7: FKBP-095: FKBP13 DRD Q72R, Q84E, A117H, P122S; SEQ ID NO: 45 (protein)
# chain: B1 chain with A53L, P82S
# modifications: Description of sequence: FKBP13-AcGFP-mCherry Fusion; Construct Name: FKBP-095; FKBP13 DRD in Construct : FKBP13 (mutated to match FKBP12 active site Q72R Q84E A117H) (DRD - P122S)
# B8: FKBP-094: FKBP13 DRD Q72R, Q84E, A117H, P107S; SEQ ID NO: 44 (protein)
# chain: B1 chain with A53L, P67S
# modifications: Description of sequence: FKBP13-AcGFP-mCherry Fusion; Construct Name: FKBP-094; FKBP13 DRD in Construct : FKBP13 (mutated to match FKBP12 active site Q72R Q84E A117H) (DRD - P107S)
# B9: FKBP-097: FKBP13 DRD Q72R, Q84E, A117H, E100S; SEQ ID NO: 47 (protein)
# chain: B1 chain with A53L, E60S
# modifications: Description of sequence: FKBP13-AcGFP-mCherry Fusion; Construct Name: FKBP-097; FKBP13 DRD in Construct : FKBP13 (mutated to match FKBP12 active site Q72R Q84E A117H) (DRD - E100S)
# B10: FKBP-125: FKBP13 DRD Q72R, Q84E, A117W, D62S; SEQ ID NO: 75 (protein)
# chain: B1 chain with D22S, A53L, H77W
# modifications: Description of sequence: FKBP13-AcGFP-mCherry Fusion; Construct Name: FKBP-125; FKBP13 DRD in Construct : FKBP13 (mutated to match FKBP12 active site Q72R Q84E A117W) (DRD D62S)
# B11: FKBP-127: FKBP13 DRD Q72R, Q84E, A117W, F76Q; SEQ ID NO: 77 (protein)
# chain: B1 chain with F36Q, A53L, H77W
# modifications: Description of sequence: FKBP13-AcGFP-mCherry Fusion; Construct Name: FKBP-127; FKBP13 DRD in Construct : FKBP13 (mutated to match FKBP12 active site Q72R Q84E A117W) (DRD F76Q)
# B12: FKBP-123: FKBP13 DRD Q72R, Q84E, A117W, G49S; SEQ ID NO: 73 (protein)
# chain: B1 chain with G9S, A53L, H77W
# modifications: Description of sequence: FKBP13-AcGFP-mCherry Fusion; Construct Name: FKBP-123; FKBP13 DRD in Construct : FKBP13 (mutated to match FKBP12 active site Q72R Q84E A117W) (DRD G49S)
# B13: FKBP-126: FKBP13 DRD Q72R, Q84E, A117H, D62S; SEQ ID NO: 76 (protein)
# chain: B1 chain with D22S, A53L
# modifications: Description of sequence: FKBP13-AcGFP-mCherry Fusion; Construct Name: FKBP-126; FKBP13 DRD in Construct : FKBP13 (mutated to match FKBP12 active site Q72R Q84E A117H) (DRD D62S)
# B14: FKBP-124: FKBP13 DRD Q72R, Q84E, A117H, G49S; SEQ ID NO: 74 (protein)
# chain: B1 chain with G9S, A53L
# modifications: Description of sequence: FKBP13-AcGFP-mCherry Fusion; Construct Name: FKBP-124; FKBP13 DRD in Construct : FKBP13 (mutated to match FKBP12 active site Q72R Q84E A117H) (DRD G49S)
# B15: FKBP-122: FKBP13 DRD Q72R, Q84E, A117H, I136V; SEQ ID NO: 72 (protein)
# chain: B1 chain with A53L, I96V
# modifications: Description of sequence: FKBP13-AcGFP-mCherry Fusion; Construct Name: FKBP-122; FKBP13 DRD in Construct : FKBP13 (mutated to match FKBP12 active site Q72R Q84E A117H) (DRD I136V)
# B16: FKBP-121: FKBP13 DRD Q72R, Q84E, A117W, I136V; SEQ ID NO: 71 (protein)
# chain: B1 chain with A53L, H77W, I96V
# modifications: Description of sequence: FKBP13-AcGFP-mCherry Fusion; Construct Name: FKBP-121; FKBP13 DRD in Construct : FKBP13 (mutated to match FKBP12 active site Q72R Q84E A117W) (DRD I136V)
# Test system: Jurkat cells
# Assay: Tacrolimus dose response of FKBP13-AcGFP-mCherry constructs stably transduced into Jurkat cells, GFP MFI by flow cytometry
# Assay type: cell-based
# Details: tacrolimus dose response, Jurkat cells stably transduced (FIG. 4); Table 4
# Method: The regulation of AcGFP, from FKBP13-AcGFP-mCherry constructs, in Jurkat cells, was also studied. Jurkat Clone E6-1 cells were cultured in standard media (RPMI+GlutaMAX Supplement (Life Technologies, Carlsbad, CA Cat #61870127), Fetal Bovine Serum (FBS) (Life Technologies Cat #10-082-147)). Jurkat cells were transduced with lentivirus produced with each of FKBP-039, FKBP-040, FKBP-041, FKBP-042, FKBP-043, FKBP-044, or FKBP-045 constructs. Jurkat cells were transduced until they were 10-25% positive, as determined on day 5 post-transduction, by using mCherry as a transduction marker. […] The Geometric Mean Fluorescent Intensity (MFI) of GFP expression in mCherry+ cells was plotted and dose response curve fits were performed using Prism Software (San Diego, CA).
# FKBP-091 was used as a comparative construct.
# FIGS. 22-38 show the results of characterization of FKBP-160-292. […] FKBP-091 and FKBP-117 was used as a comparative control for FKBP-160-FKBP-255. FKBP-195 was used as a comparative control for FKBP-256-FKBP-275. FKBP-117, FPBP-195 and FKBP-251 were used as a comparative control for FKBP-276-FKBP-292.
# FKBP mutants were cloned in a manner to make a fusion protein with AcGFP in order to assess FKBP mutant regulation by using AcGFP expression as a readout. […] Further iterative FKBP mutants (FKBP-256-FKBP-292) were constructed from these initial combinatorial mutants to see if we could further improve FKBP DRD properties.
row,Molecule,Fold Change
1,B1,27.3
2,B2,2.7
3,B3,16.6
4,B4,21.6

# Same assay, conditions: tacrolimus dose response, Jurkat cells stably transduced (FIG. 10); Table 5
row,Molecule,Fold Change
1,B5,16.09
2,B6,12.42
3,B1,31.085
4,B7,31.4
5,B8,13.5
6,B9,36.75

# Same assay, conditions: tacrolimus, Jurkat cells stably transduced; Table 6
row,Molecule,Fold Change
1,B10,29.07
2,B11,10.25
3,B12,48.38
4,B13,25.70
5,B14,40.13
6,B15,22.51
7,B16,28.35
